The target of assay [1] is T1, human CTLA-4 (human, UniProt P16410 36-223).
T1 construct: whole, on cells
Put plainly: flow cytometry, transfected cells; protein from CHO.

Assay [2] has as its target T2, human ICOS (human, UniProt Q9Y6W8 21-199).
T2 construct: whole, on cells
T2 sequence (looked up): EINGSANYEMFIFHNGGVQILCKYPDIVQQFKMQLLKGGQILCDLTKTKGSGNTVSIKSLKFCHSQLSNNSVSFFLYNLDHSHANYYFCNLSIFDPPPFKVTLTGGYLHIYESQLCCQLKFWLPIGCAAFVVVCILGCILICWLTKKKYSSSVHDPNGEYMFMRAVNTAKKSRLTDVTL
The assay is described as above.

Assay [3] concerns the target T3, human CD28 (human, UniProt P10747 19-220).
T3 construct: whole, on cells
Described as above.

Assay [4] deals with T1, human CTLA-4. Put plainly: flow cytometry, transfected Expi293 cells.
Assay [5] addresses T2, human ICOS. The assay can be described thus: flow cytometry, transfected Expi293 cells.
The target of assay [6] is T3, human CD28. Put plainly: flow cytometry, transfected Expi293 cells.

Results on nine molecules are retold here after patent US20230235012A1 (ALPINE IMMUNE SCIENCES, published 2023).

Positions count from the first letter of the chain named. Numbers in names are those of the source.

T1 sequence (P16410 36-223): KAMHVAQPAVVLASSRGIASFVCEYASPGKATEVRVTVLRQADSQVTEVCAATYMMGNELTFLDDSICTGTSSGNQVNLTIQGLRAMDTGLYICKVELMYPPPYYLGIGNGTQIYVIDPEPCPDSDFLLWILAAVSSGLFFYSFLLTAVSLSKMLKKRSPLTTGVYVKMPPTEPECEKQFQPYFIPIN

B1: ICOSL ECD Truncation #5 with N52H/N57Y/Q100R/C198R, Fc fusion (Fc fusion)
chain: DTQEKEVRAMVGSDVELSCACPEGSRFDLNDVYVYWQTSESKTVVTYHIPQHSSLEYVDSRYRNRALMSPAGMLRGDFSLRLFNVTPQDEQKFHCLVLSRSLGFQEVLSVEVTLHVAANFSVPVVSAPHSPSQDELTFTCTSINGYPRPNVYWINKTDNSLLDQALQNDTVFLNMRGLYDVVSVLRIARTPSVNIGCRIENVLLQQGGGGSGGGGSEPKSSDKTHTCPPCPAPEAEGAPSVFLFPPKPKDTLMISRTPEVTCVVVDVSHEDPEVKFNWYVDGVEVHNAKTKPREEQYNSTYRVVSVLTVLHQDWLNGKEYKCKVSNKALPAPIEKTISKAKGQPREPQVYTLPPSREEMTKNQVSLTCLVKGFYPSDIAVEWESNGQPENNYKTTPPVLDSDGSFFLYSKLTVDKSRWQQGNVFSCSVMHEALHNHYTQKSLSLSPG
notes: not restated for the C198R set
B1: the results for the MFI with human CTLA-4 [1], with human ICOS [2] and in the assay with human CD28 [3] were 216000 MFI, 110000 MFI and 86300 MFI, respectively. For the same molecule, the entries for the “MFI ratio to WT” value with human CTLA-4 [1], in the assay with human ICOS [2] and in the assay with human CD28 [3] were 28.5 fold, 1.1 fold and 50 fold, respectively.

B2: ICOSL ECD N52H/N57Y/Q100P - G4S - Fc C220S/E233P/L234V/L235A/G236del/S267K (Fc fusion)
chain: DTQEKEVRAMVGSDVELSCACPEGSRFDLNDVYVYWQTSESKTVVTYHIPQHSSLEYVDSRYRNRALMSPAGMLRGDFSLRLFNVTPQDEQKFHCLVLSPSLGFQEVLSVEVTLHVAANFSVPVVSAPHSPSQDELTFTCTSINGYPRPNVYWINKTDNSLLDQALQNDTVFLNMRGLYDVVSVLRIARTPSVNIGCCIENVLLQQNLTVGSQTGNDIGERDKITENPVSTGEKNAATGGGGSEPKSSDKTHTCPPCPAPPVAGPSVFLFPPKPKDTLMISRTPEVTCVVVDVKHEDPEVKFNWYVDGVEVHNAKTKPREEQYNSTYRVVSVLTVLHQDWLNGKEYKCKVSNKALPAPIEKTISKAKGQPREPQVYTLPPSREEMTKNQVSLTCLVKGFYPSDIAVEWESNGQPENNYKTTPPVLDSDGSFFLYSKLTVDKSRWQQGNVFSCSVMHEALHNHYTQKSLSLSPGK
Regarding B2, the MFI with human CTLA-4 [4] worked out at 188000 MFI; in the assay with human ICOS [5], 93400 MFI.

B3: ICOSL ECD N52H/N57Y/Q100R/F172S - AAA - Fc C220S/E233P/L234V/L235A/G236del/S267K (Fc fusion)
chain: DTQEKEVRAMVGSDVELSCACPEGSRFDLNDVYVYWQTSESKTVVTYHIPQHSSLEYVDSRYRNRALMSPAGMLRGDFSLRLFNVTPQDEQKFHCLVLSRSLGFQEVLSVEVTLHVAANFSVPVVSAPHSPSQDELTFTCTSINGYPRPNVYWINKTDNSLLDQALQNDTVSLNMRGLYDVVSVLRIARTPSVNIGCCIENVLLQQNLTVGSQTGNDIGERDKITENPVSTGEKNAATAAAEPKSSDKTHTCPPCPAPPVAGPSVFLFPPKPKDTLMISRTPEVTCVVVDVKHEDPEVKFNWYVDGVEVHNAKTKPREEQYNSTYRVVSVLTVLHQDWLNGKEYKCKVSNKALPAPIEKTISKAKGQPREPQVYTLPPSREEMTKNQVSLTCLVKGFYPSDIAVEWESNGQPENNYKTTPPVLDSDGSFFLYSKLTVDKSRWQQGNVFSCSVMHEALHNHYTQKSLSLSPGK
In the case of B3, the MFI with human CTLA-4 [4] was determined as 193000 MFI; with human ICOS [5] it was 104000 MFI; in the assay with human CD28 [6] it was 57300 MFI. Also, the “MFI ratio to WT” value in the assay with human CTLA-4 [4] worked out at 20.5 fold; with human ICOS [5], 1.3 fold; with human CD28 [6], 10.9 fold.

B4: ICOSL ECD N52H/N57Y/Q100P - AAA - Fc C220S/E233P/L234V/L235A/G236del/S267K (Fc fusion)
chain: B3 chain with R100P, S172F
Regarding B4, the MFI with human CTLA-4 [4] came to 315000 MFI; with human ICOS [5], 103000 MFI; in the assay with human CD28 [6], 69600 MFI. The “MFI ratio to WT” value came to 33.5 fold in the assay with human CTLA-4 [4], 1.3 fold with human ICOS [5] and 13.3 fold with human CD28 [6].

B5: ICOSL ECD N52H/N57Y/Q100P - no linker - Fc C220S/L234A/L235E/G237A (Fc fusion)
chain: DTQEKEVRAMVGSDVELSCACPEGSRFDLNDVYVYWQTSESKTVVTYHIPQHSSLEYVDSRYRNRALMSPAGMLRGDFSLRLFNVTPQDEQKFHCLVLSPSLGFQEVLSVEVTLHVAANFSVPVVSAPHSPSQDELTFTCTSINGYPRPNVYWINKTDNSLLDQALQNDTVFLNMRGLYDVVSVLRIARTPSVNIGCCIENVLLQQNLTVGSQTGNDIGERDKITENPVSTGEKNAATEPKSSDKTHTCPPCPAPEAEGAPSVFLFPPKPKDTLMISRTPEVTCVVVDVSHEDPEVKFNWYVDGVEVHNAKTKPREEQYNSTYRVVSVLTVLHQDWLNGKEYKCKVSNKALPAPIEKTISKAKGQPREPQVYTLPPSREEMTKNQVSLTCLVKGFYPSDIAVEWESNGQPENNYKTTPPVLDSDGSFFLYSKLTVDKSRWQQGNVFSCSVMHEALHNHYTQKSLSLSPGK
notes: direct fusion, linker 'none'
For the molecule B5, the MFI with human ICOS [5] was 97700 MFI.

B6: ICOSL ECD N52H/N57Y/Q100R/F172S - no linker - Fc C220S/L234A/L235E/G237A (Fc fusion)
chain: B5 chain with P100R, F172S
notes: direct fusion, linker 'none'
Molecule B6 came in with an MFI in the assay with human ICOS [5] of 106000 MFI.

B7: ICOSL ECD N52H/N57Y/Q100P - no linker - Fc C220S/E233P/L234V/L235A/G236del/S267K (Fc fusion)
chain: DTQEKEVRAMVGSDVELSCACPEGSRFDLNDVYVYWQTSESKTVVTYHIPQHSSLEYVDSRYRNRALMSPAGMLRGDFSLRLFNVTPQDEQKFHCLVLSPSLGFQEVLSVEVTLHVAANFSVPVVSAPHSPSQDELTFTCTSINGYPRPNVYWINKTDNSLLDQALQNDTVFLNMRGLYDVVSVLRIARTPSVNIGCCIENVLLQQNLTVGSQTGNDIGERDKITENPVSTGEKNAATEPKSSDKTHTCPPCPAPPVAGPSVFLFPPKPKDTLMISRTPEVTCVVVDVKHEDPEVKFNWYVDGVEVHNAKTKPREEQYNSTYRVVSVLTVLHQDWLNGKEYKCKVSNKALPAPIEKTISKAKGQPREPQVYTLPPSREEMTKNQVSLTCLVKGFYPSDIAVEWESNGQPENNYKTTPPVLDSDGSFFLYSKLTVDKSRWQQGNVFSCSVMHEALHNHYTQKSLSLSPGK
notes: direct fusion, linker 'None'
As to B7, the MFI with human ICOS [5] was determined as 98500 MFI.

B8: ICOSL ECD N52H/N57Y/Q100P - AAA - Fc C220S/L234A/L235E/G237A (Fc fusion)
chain: DTQEKEVRAMVGSDVELSCACPEGSRFDLNDVYVYWQTSESKTVVTYHIPQHSSLEYVDSRYRNRALMSPAGMLRGDFSLRLFNVTPQDEQKFHCLVLSPSLGFQEVLSVEVTLHVAANFSVPVVSAPHSPSQDELTFTCTSINGYPRPNVYWINKTDNSLLDQALQNDTVFLNMRGLYDVVSVLRIARTPSVNIGCCIENVLLQQNLTVGSQTGNDIGERDKITENPVSTGEKNAATAAAEPKSSDKTHTCPPCPAPEAEGAPSVFLFPPKPKDTLMISRTPEVTCVVVDVSHEDPEVKFNWYVDGVEVHNAKTKPREEQYNSTYRVVSVLTVLHQDWLNGKEYKCKVSNKALPAPIEKTISKAKGQPREPQVYTLPPSREEMTKNQVSLTCLVKGFYPSDIAVEWESNGQPENNYKTTPPVLDSDGSFFLYSKLTVDKSRWQQGNVFSCSVMHEALHNHYTQKSLSLSPGK
Take B8: the MFI in the assay with human CTLA-4 [4] was 171000 MFI; with human ICOS [5] it was 97100 MFI; with human CD28 [6], 68700 MFI. In addition, the entries for the “MFI ratio to WT” value with human CTLA-4 [4], with human ICOS [5] and with human CD28 [6] were 18.2 fold, 1.2 fold and 13.1 fold, respectively.

B9: ICOSL ECD N52H/N57Y/Q100R/F172S - AAA - Fc C220S/L234A/L235E/G237A (Fc fusion)
chain: B8 chain with P100R, F172S
On to B9, for which the MFI with human CTLA-4 [4] amounted to 194000 MFI; in the assay with human ICOS [5], 105000 MFI; with human CD28 [6] it was 65500 MFI. For the same molecule, the entries for the “MFI ratio to WT” value in the assay with human CTLA-4 [4], with human ICOS [5] and with human CD28 [6] were 20.6 fold, 1.3 fold and 12.5 fold, respectively.
